Experimental data as given in patent publication US20200031893.

Legend:
[1] = test system: proNGF mutant SP174-101 (protease cleavage site mutated to VSAR)
Sequence of proNGF mutant SP174-101 (protease cleavage site mutated to VSAR) (chain, as listed by the source mutant): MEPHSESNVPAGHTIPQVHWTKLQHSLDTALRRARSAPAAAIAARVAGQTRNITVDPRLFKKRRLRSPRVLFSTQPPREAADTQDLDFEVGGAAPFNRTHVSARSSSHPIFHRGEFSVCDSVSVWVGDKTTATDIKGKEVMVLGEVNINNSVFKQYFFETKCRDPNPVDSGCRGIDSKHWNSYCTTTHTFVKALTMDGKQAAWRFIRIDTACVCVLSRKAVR

Sequence of human wild-type proNGF (chain, as listed by the source): as the sequence (chain, as listed by the source mutant) above, with V101R, A103K counted along it

For Trypsin (Roche, GMP grade), the % ProNGF remaining after tryptic digestion, Trypsin/ProNGF ratio 1/250 (HPLC-UV) (human wild-type proNGF) was 0%, the % ProNGF remaining after tryptic digestion, Trypsin/ProNGF ratio 1/1000 (HPLC-UV) (human wild-type proNGF) was 0% and the % ProNGF remaining after tryptic digestion, Trypsin/ProNGF ratio 1/5000 (HPLC-UV) (human wild-type proNGF) was 21.5%. It also gave a % ProNGF remaining after tryptic digestion, Trypsin/ProNGF ratio 1/10000 (HPLC-UV) (human wild-type proNGF) of 67.1%, a % betaNGF (cleavage yield) after tryptic digestion, Trypsin/ProNGF ratio 1/250 (HPLC-UV) (human wild-type proNGF) of 67.9% and a % betaNGF (cleavage yield) after tryptic digestion, Trypsin/ProNGF ratio 1/1000 (HPLC-UV) (human wild-type proNGF) of 77.9%. For the same substance, the % betaNGF (cleavage yield) after tryptic digestion, Trypsin/ProNGF ratio 1/5000 (HPLC-UV) (human wild-type proNGF) was 18.6%, the % betaNGF (cleavage yield) after tryptic digestion, Trypsin/ProNGF ratio 1/10000 (HPLC-UV) (human wild-type proNGF) was 4.6% and the % betaNGF Overdigested Forms after tryptic digestion, Trypsin/ProNGF ratio 1/250 (HPLC-UV) (human wild-type proNGF) was 25.7%. It also gave a % betaNGF Overdigested Forms after tryptic digestion, Trypsin/ProNGF ratio 1/1000 (HPLC-UV) (human wild-type proNGF) of 12.9%, a % betaNGF Overdigested Forms after tryptic digestion, Trypsin/ProNGF ratio 1/5000 (HPLC-UV) (human wild-type proNGF) of 6.6% and a % ProNGF remaining after tryptic digestion, Trypsin/ProNGF ratio 1/10000 (HPLC-UV) [1] of 1.9%. The % betaNGF (cleavage yield) after tryptic digestion, Trypsin/ProNGF ratio 1/10000 (HPLC-UV) [1] was 84.5% and the “tryptic digestion, trypsin:proNGF 1:10,000 (w/w), 18 h, room temperature, SDS-PAGE” value [1] was “A complete digestion of proNGF mutant to beta-NGF could be observed”.
